Measured values published in patent US7589065B2, “Catalysis of the cis/trans-isomerisation of secondary amide peptide compounds” (Max-Planck Gesellschaft zur Forderung der Wissenschaften, …, priority 2001, dated 2009).

B1: Parvulin: peptidyl-prolyl cis/trans isomerase (Rahfeld et al., 1994) (protein)
chain: AKTAAALHILVKEEKLALDLLEQIKNGADFGKLAKKHSICPSGKRGGDLGEFRQGQMVPAFDKVVFSCPVLEPTGPLHTQFGYHIIKVLYRN
B2: trigger factor (TF): peptidyl-prolyl cis/trans isomerase (Stoller G. et al., 1995) (protein)
chain: MQVSVETTQGLGRRVTITIAADSIETAVKSELVNVAKKVRIDGFRKGKVPMNIVAQRYGASVRQDVLGDLMSRNFIDAIIKEKINPAGAPTYVPGEYKLGEDFTYSVEFEVYPEVELQGLEAIEVEKPIVEVTDADVDGMLDTLRKQQATWKEKDGAVEAEDRVTIDFTGSVDGEEFEGGKASDFVLAMGQGRMIPGFEDGIKGHKAGEEFTIDVTFPEEYHAENLKGKAAKFAINLKKVEERELPELTAEFIKRFGVEDGSVEGLRAEVRKNMERELKSAIRNRVKSQAIEGLVKANDIDVPAALIDSEIDVLRRQAAQRFGGNEKQALELPRELFEEQAKRRVVVGLLLGEVIRTNELKADEERVKGLIEEMASAYEDPKEVIEFYSKNKELMDNMRNVALEEQAVEAVLAKAKVTEKETTFNELMNQQA
B3: fragment of the TF: fragment of the trigger factor (Stoller G. et al., 1996) (protein)
chain: RKQQATWKEKDGAVEAEDRVTIDFTGSVDGEEFEGGKASDFVLAMGQGRMIPGFEDGIKGHKAGEEFTIDVTFPEEYHAENLKGKAAKFAINLKKVEERELPELTAE

Assay: 2D 1H NMR exchange (NOESY) measurement of cis/trans isomerisation in the pentapeptide
Format: biochemical
Conditions: 20 μM addition; for relative intensity of the cross signal of the peptide bond Ala-Tyr / relative intensity of the cross signal of the peptide bond Tyr-Ala: 25 mM pentapeptide, pH 7.1, 278° K; for relative intensity of the cross signal of the peptide bond Ala-Tyr: no addition 3.50 ± 0.51; for relative intensity of the cross signal of the peptide bond Tyr-Ala: no addition 3.89 ± 0.32
Source text: A further possibility, only described in 1998, is the determination of the cis/trans isomerisation rate of secondary amide peptide bonds containing aromatic amino acids by means of 2D 1H NMR exchange experiments (Scherer G. et al., 1998, JACS 120:5568-5574). In Example 8, this NMR method is used to determine a catalytic acceleration of the cis/trans isomerisation of the peptide bonds Ala-Tyr and Tyr-Ala within the pentapeptide Ala-Ala-Tyr-Ala-Ala. The acceleration is accomplished by catalytic amounts of DnaK.
NMR Device: Bruker DRX-500, Equipped with z-gradient
• FIG. 8: The alanine methyl region from the two-dimensional exchange 1H-NMR spectrum of 25 mM Ala-Ala-Tyr-Ala-Ala in 25 mM Tris, 11 mM MgCl2, 50 mM KCl, 9:1H2O:D2O, pH 7.1 at 278° K. The mixing time of the phase-sensitive NOESY was 330 ms. Each FID had 184 scans. The amount of data from t1×t2=512×8192 points covered a spectral range of 5501 Hz×5482 Hz. The correction of the base line was carried out by adjustment with a polynom of fifth order in the F2 dimension. […] The experiment was carried out under identical conditions as described above. In addition, 20 μM DnaK was contained in the measuring solution.
In a further analysis of the method of the two-dimensional NOESY experiment illustrated in Example 8, the cross signals can be quantified by means of common mathematical techniques.

Row | Molecule | catalysis of the cis/trans isomerisation of the Ala-Tyr and Tyr-Ala peptide bonds (in words) | relative intensity of the cross signal of the peptide bond Ala-Tyr | relative intensity of the cross signal of the peptide bond Tyr-Ala
1 | B1 | neither catalyse | 2.90 ± 0.96 | 3.11 ± 0.46
2 | B2 | neither catalyse | 3.83 ± 1.07 | 4.42 ± 0.58
3 | B3 | neither catalyse | 3.96 ± 0.77 | 3.22 ± 0.58
